Reference: PMC10810272

Key:
[1] = target: Candidatus Methanomethylophilus alvus pyrrolysyl-tRNA synthetase (MaPylRS) (Candidatus Methanomethylophilus alvus) (UniProt M9SC49); test: AUC; sedimentation velocity, 20°C, 30 000 rpm; 50 mM MES pH 5.2, 500 mM NaCl, 10 mM MgCl2; multiple concentrations (0.3, 0.6 and 1.2 mg/ml)
[2] = target: Candidatus Methanomethylophilus alvus pyrrolysyl-tRNA synthetase (MaPylRS) (Candidatus Methanomethylophilus alvus) (UniProt M9SC49); test: dynamic light scattering; Nano-S Zetasizer, five measurements; sample at 16 μM (0.5 mg/ml); dimer assigned from HullRad predictions on the crystal structure

## Candidatus Methanomethylophilus alvus pyrrolysyl-tRNA synthetase (MaPylRS) (from UniProt M9SC49 1-275) (enzyme)
[1]
  stoichiometry N: 2
[2]
  stoichiometry N: 2
